In the supplement of paper PMC10567573:

B1: TNNI2 (parent)
chain: DWRKNIEEKSGMEGRKKMFESES

Variants of: B1
Assay: protein stability index of a GFP-peptide fusion (GPS, HEK-293T) (PSI 1-6); higher = more stable
Conditions: c terminus: native
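Also: lentivirally expressed fusions sorted by FACS into six bins by GFP to DsRed ratio, PSI derived from sequencing read proportions per bin multiplied by bin number.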

Protein stability index, by site and new letter:
E20: Q 3.54 | G 4.73 | W 3.71 | K 2.92 | R 2.22 | C 2.67 | V 2.79 | M 2.75 | D 3.65 | H 4.26 | I 2.89 | A 2.88 | F 4.56 | T 2.94 | S 4.04 | P 5.16 | L 2.33
R3: K 2.34 | A 2.09 | Q 2.84 | D 2.63 | F 2.06 | E 2.48 | L 1.74 | I 2.19 | H 2.88 | P 1.84 | Y 1.64 | N 2.48 | T 2.48 | S 2.04 | M 3.28 | G 1.61 | V 2.08
K17: Q 2.39 | P 3.08 | V 3.07 | N 2.56 | I 3.32 | A 2.25 | H 3.84 | T 2.39 | R 1.97 | L 2.01 | F 2.48 | Y 2.6 | E 2.36 | C 2.41 | M 2.42 | D 2.83 | S 2.82
I6: K 2.23 | G 2.41 | S 2.54 | Q 3.26 | A 2.59 | C 2.54 | Y 1.88 | P 3.72 | N 2.54 | M 2.52 | V 2.09 | H 2.12 | R 2.09 | T 3.26
D1: P 2.57 | I 2.63 | Y 2.24 | T 2.37 | G 2.28 | H 2.27 | R 2.79 | V 2.37 | N 2.79 | S 1.79 | C 1.75 | Q 2.65 | A 2.91 | W 3.07 | M 1.57 | K 2.01 | L 1.9 | F 1.9
K9: N 2.58 | L 2.51 | I 2.39 | E 2.13 | W 2.34 | C 1.84 | P 1.75 | D 1.73 | S 3.35 | F 2.44 | T 2.54 | Q 1.68 | H 2.4 | Y 1.93
G11: A 2.57 | D 1.99 | V 2 | N 1.94 | Q 1.18 | M 1.9 | C 1.52 | L 2.77 | T 1.58 | R 2.35 | Y 1.45 | H 1.76 | S 2.6 | E 3.21 | K 3.5
F19: Q 4.78 | T 4.8 | A 5.06 | R 4.97 | H 3.76 | P 4.51 | Y 2.22 | M 2.82 | N 5.46 | I 4.22 | K 5.64 | W 1.48 | C 4.42 | E 5.03 | S 5.6 | D 5.43
M12: K 2.72 | D 2.52 | P 1.96 | F 2.38 | W 1.39 | Y 2.94 | E 2.47 | L 2.13 | S 2.5 | Q 2.02 | H 2.42 | V 2.39 | I 3.01 | T 3.47 | C 2.71 | R 2.74 | N 2.89
E7: Q 2.56 | A 2.16 | T 2.82 | N 2.79 | H 1.84 | R 2.8 | V 2.26 | C 2.01 | I 1.75 | L 2.17 | W 2.01 | P 2.85 | M 2.25 | Y 2.12 | D 3 | G 1.83 | K 2.62 | F 1.77 | S 1.76
R15: P 2.98 | I 1.71 | Y 2.15 | N 2.77 | M 1.51 | E 2.8 | K 3.5 | G 1.76 | T 2.7 | F 1.62 | H 2.15 | L 2.56 | A 2.59 | Q 3.12 | D 2.44
E13: T 3.7 | C 2.78 | D 2.52 | Y 2.15 | S 1.77 | P 2.34 | M 2.03 | V 2.33 | K 2.94 | H 2.19 | A 2.01 | R 2.72 | F 1.73 | L 2.47 | N 2.75 | G 3.41 | W 1.81 | Q 2.03
G14: N 2.22 | P 2.56 | V 1.08 | K 1.31 | M 1.99 | S 1.63 | F 1.93 | T 1.41 | W 2.78 | A 1.43 | I 1.6 | E 1.38 | D 1.67 | C 2.56 | R 2.55 | H 1.94
E8: V 2.66 | M 1.5 | L 2.47 | G 2.06 | S 1.99 | C 1.63 | Y 2.16 | P 3.03 | K 2.74 | W 1.52 | F 2.06 | R 1.84 | N 3.61 | H 2.09 | T 2.17 | A 2.2 | I 2.41 | Q 2.17
S10: P 2.52 | T 2.47 | E 2.28 | Q 2.97 | K 2.18 | L 1.58 | I 2.89 | G 2.42 | R 2.55 | M 2.16 | A 1.7 | Y 2.82 | V 1.02 | N 2.54 | H 2.29 | C 1.81
N5: S 2.31 | T 3.41 | I 2.32 | R 2.95 | V 2.04 | Q 2.72 | C 2.7 | D 1.94 | W 1.64 | H 2.07 | G 2.5 | E 2.28 | A 3.79 | M 2.37 | F 2.43 | P 3.97 | Y 1.62 | L 2.57
K4: F 2.37 | W 2.13 | P 2.61 | Y 2.56 | H 2.62 | T 2.98 | I 2.13 | Q 3.21 | M 3.39 | D 3.23 | S 3.03 | L 2.82 | V 3.15 | N 3.23 | G 3.03 | A 3.61 | C 2.32 | E 2.59
M18: I 1.98 | C 3.89 | H 2.7 | Y 1.85 | D 6 | P 4.59 | E 4.34 | T 4.9 | V 2.39 | A 2.26 | G 5.42 | K 2.78 | W 1.66 | R 4.45 | S 4.36 | L 1.13 | N 4.47
K16: C 2.19 | R 2.3 | W 1.85 | M 1.92 | T 2.07 | I 1.83 | H 1.85 | V 2.32 | S 1.98 | P 2.72 | Y 1.24 | G 1.78 | N 1.95 | Q 2.19 | E 2.39 | D 3.19 | L 2.85
W2: P 3.59 | N 2.25 | C 2.88 | Q 3.67 | G 2.51 | S 2.69 | I 2.53 | L 2.85 | F 2.55 | D 3.12 | T 2.32 | E 3.25 | Y 2.93 | V 2.96 | M 3.08 | H 2.95 | K 1.95
